Reference: PMC3887004

Biological target: F-actin (actin from rabbit skeletal muscle) (rabbit) (UniProt P68135)

Substance: Myo IX headΔext (motor domain lacking the N-terminal extension) (domain or fragment)
- run length λ of Qdot-labelled myosin moving along immobilised actin filaments (stepping assay): 2.9 µm
